The target of this data set is T1, DrHU WT (Deinococcus radiodurans R1 (ATCC13939), UniProt Q9RZ89 1-122).
T1 sequence: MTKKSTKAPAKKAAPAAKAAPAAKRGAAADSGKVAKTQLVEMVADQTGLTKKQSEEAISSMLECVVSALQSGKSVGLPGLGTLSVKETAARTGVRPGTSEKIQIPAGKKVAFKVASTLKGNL
The data set can be described thus: EMSA; 10 mM Mg2+; EMSA: 50 mM NaCl, 20 mM Tris-HCl pH 8.0, 0.1 mg/ml BSA, 3 mM DTT, 0.1 mM EDTA, 10% glycerol, 10 mM MgCl2, 50 nM DNA, 0-3200 nM DrHU, room temperature 20 min; 22% native PAGE in 1x TB. The note with it: protein: recombinant; tags: N-terminal His-MBP (pET28a-HMT), removed by TEV; chain copies: 2; label: 5'-FAM; blunt. (A gel shift assay detects complexes by their altered migration in electrophoresis.)

B1: Duplex DNA (24bp) (dsDNA)
DNA 1: TCAATTATGTCAATGACATAAAAG
DNA 2: CTTTTATGTCATTGACATAATTGA
Consider B1, for which the Kd – broadly, the concentration at which binding is half-saturated – was determined as 1480 ± 41.8 nM.

B2: Duplex DNA (36bp) (dsDNA)
DNA 1: GCAGAGTCAATTATGTCAATGACATAAAAGGCTCAG
DNA 2: CTGAGCCTTTTATGTCATTGACATAATTGACTCTGC
Turning to B2, the Kd came to 1350 ± 200 nM.

B3: Duplex DNA (48bp) (dsDNA)
DNA 1: TAACAAGCAGAGTCAATTATGTCAATGACATAAAAGGCTCAGGCCTTC
DNA 2: GAAGGCCTGAGCCTTTTATGTCATTGACATAATTGACTCTGCTTGTTA
Consider B3, for which the Kd was found to be 449 ± 29.6 nM.
